Data published in the supplement of paper PMC10201428.
± gives the standard deviation of the averaged measurements.

What was measured:
[1] = tested on: VchCAST RNA-guided transposition machinery (E. coli BL21(DE3) host, lacZ target); test: relative integration efficiency (T-LR orientation) vs wild-type transposon end (log2 (normalized fold change)); transposon end mutated: right end (5 bp flank + 75 bp right end); higher = more efficient transposition
Method in brief: (§1)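 Pools of 1549 left-end or 1849 right-end barcoded transposon variants were cloned into a pUC57 mini-transposon donor and co-transformed into E. coli BL21(DE3) with a T7-driven effector plasmid carrying a CRISPR array, tniQ-cas8-cas7-cas6 and tnsA-tnsB-tnsC. Plating used 0.1 mM IPTG at 37°C for 18 h, and input plasmids and genomic integration junctions were PCR-amplified for Illumina sequencing, with two biological output replicates and four reference barcodes. Relative integration efficiency is the log-transformed fold change of output over input barcode abundance, normalised to the reference barcodes.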

[2] = tested on: VchCAST RNA-guided transposition machinery (E. coli BL21(DE3) host, lacZ target); test: relative integration efficiency (T-RL orientation) vs wild-type transposon end (log2 (normalized fold change)); transposon end mutated: right end (5 bp flank + 75 bp right end); higher = more efficient transposition
Method in brief: as §1

Sequence | relative integration efficiency (log2) [1] | relative integration efficiency (log2) [2]
ACATTTGTTGATACAACCATAAAATGATAATTAATAATTATTTATAATCAGCCACCCATAAATTGATAATTATCAACAAACGCCCGGTCGCGGTACTCTGATCATAGTCAGACCAACATTGCTACGA | 1.16 ± 0.037 | -1.83 ± 0.4
ACATTTGTTGATACAACCATAAAATGATAATTAATAATTATTTATAATCAGCCACCCATAAATTGATAATTATCACACCCATAAATTGATATTGCCTCTGATCATAGTCAGACCAACATTGCTACGA | -0.898 ± 1.2 | -3.35 ± 0.33
ACATTTGTTGATACAACCATAAAATGATAATTAATAATTATTTATAATCCACCCATAAATTGATAATTATCAACAAACGCCCGGTCGCGGTACTCTGATCATAGTCAGACCAACATTGCTACGACCC | 1.24 ± 0.42 | -2.37 ± 0.16
ACATTTGTTGATACAACCATAAAATGATAATTAATAATTATTTATAATCCACCCATAAATTGATAATTATCACACCCATAAATTGATATTGCCTCTGATCATAGTCAGACCAACATTGCTACGACCC | 0.382 ± 0.22 | -3.09 ± 0.19
ACATTTGTTGATACAACCATAAAATGATAATTAATAATTATTTATACACCCATAAATTGATAATTATCAACAAACGCCCGGTCGCGGTACTCTGATCATAGTCAGACCAACATTGCTACGACCCGTA | 0.401 ± 0.042 | -3.12 ± 0.48
ACATTTGTTGATACAACCATAAAATGATAATTAATAATTATTTATACACCCATAAATTGATAATTATCACACCCATAAATTGATATTGCCTCTGATCATAGTCAGACCAACATTGCTACGACCCGTA | -0.465 ± 0.37 | -3.6 ± 0.11
ACATTTGTTGATACAACCATAAAATGATAATTAATAATTATTTATCACCCATAAATTGATAATTATCAACAAACGCCCGGTCGCGGTACTCTGATCATAGTCAGACCAACATTGCTACGACCCGTAT | 2.6 ± 0.053 | -0.654 ± 0.39
ACATTTGTTGATACAACCATAAAATGATAATTAATAATTATTTATCACCCATAAATTGATAATTATCACACCCATAAATTGATATTGCCTCTGATCATAGTCAGACCAACATTGCTACGACCCGTAT | -2.04 ± 0.35 | -3.21 ± 0.32
ACATTTGTTGATACAACCATAAAATGATAATTAATAATTATTTCACCCATAAATTGATAATTATCAACAAACGCCCGGTCGCGGTACTCTGATCATAGTCAGACCAACATTGCTACGACCCGTATTC | 0.365 ± 0.079 | -2.91 ± 0.43
ACATTTGTTGATACAACCATAAAATGATAATTAATAATTATTTCACCCATAAATTGATAATTATCACACCCATAAATTGATATTGCCTCTGATCATAGTCAGACCAACATTGCTACGACCCGTATTC | -2.62 ± 1.1 | -3.8 ± 0.49
ACATTTGTTGATACAACCATAAAATGATAATTAATAATTCACCCATAAATTGATAATTATCAACAAACGCCCGGTCGCGGTACTCTGATCATAGTCAGACCAACATTGCTACGACCCGTATTCGCAC | 1.02 ± 0.13 | -1.96 ± 0.21
ACATTTGTTGATACAACCATAAAATGATAATTAATAATTCACCCATAAATTGATAATTATCACACCCATAAATTGATATTGCCTCTGATCATAGTCAGACCAACATTGCTACGACCCGTATTCGCAC | 1.16 ± 0.069 | -2.69 ± 0.18
ACATTTGTTGATACAACCATAAAATGATAATTAATACACCCATAAATTGATAATTATCAACAAACGCCCGGTCGCGGTACTCTGATCATAGTCAGACCAACATTGCTACGACCCGTATTCGCACCGA | 0.59376 ± 0.00039 | -2.6 ± 0.28
ACATTTGTTGATACAACCATAAAATGATAATTAATACACCCATAAATTGATAATTATCACACCCATAAATTGATATTGCCTCTGATCATAGTCAGACCAACATTGCTACGACCCGTATTCGCACCGA | -0.393 ± 0.24 | -3.47 ± 0.4
ACATTTGTTGATACAACCATAAAATGATAATTAATCACCCATAAATTGATAATTATCAACAAACGCCCGGTCGCGGTACTCTGATCATAGTCAGACCAACATTGCTACGACCCGTATTCGCACCGAC | 1.09 ± 0.077 | -1.83 ± 0.42
ACATTTGTTGATACAACCATAAAATGATAATTAATCACCCATAAATTGATAATTATCACACCCATAAATTGATATTGCCTCTGATCATAGTCAGACCAACATTGCTACGACCCGTATTCGCACCGAC | -0.602 ± 0.3 | -1.92 ± 0.059
ACATTTGTTGATACAACCATAAAATGATAATTACAAAACGCCCGGTCGCCGGCGACACAAACGCCCGGTCGCGGTAAGAGGATCATAGTCAGACCAACATTGCTACGACCCGTATTCGCACCGACAC | 1.07 ± 0.12 | -2.05 ± 0.22
ACATTTGTTGATACAACCATAAAATGATAATTACAAAACTAAATTGATAATTATCACACCCATAAATTGATATTGCCTCTGATCATAGTCAGACCAACATTGCTACGACCCGTATTCGCACCGACAC | -2.92 ± 0.79 | -2.29 ± 0.15

Sequence | relative integration efficiency (log2) [1] | relative integration efficiency (log2) [2]
ACATTTGTTGATACAACCATAAAATGATAATTACAAACATAAATTGATAATTATCACACCCATAAATTGATATTGCCTCTGATCATAGTCAGACCAACATTGCTACGACCCGTATTCGCACCGACAC | -0.426 ± 0.17 | -0.0203 ± 0.014
ACATTTGTTGATACAACCATAAAATGATAATTACAACCATAAAATGATAATTATCACAACCATAAAATGATAATTACTCTGATCATAGTCAGACCAACATTGCTACGACCCGTATTCGCACCGACAC | -0.536 ± 0.21 | -0.193 ± 0.0064
ACATTTGTTGATACAACCATAAAATGATAATTACAACCATAAAATGATAATTATCACAACCATAAAGTGATATTTACTCTGATCATAGTCAGACCAACATTGCTACGACCCGTATTCGCACCGACAC | -0.296 ± 0.44 | -0.175 ± 0.14
ACATTTGTTGATACAACCATAAAATGATAATTACAACCATAAAATGATAATTATCACAACCATAAGTTGATATTTTCTCTGATCATAGTCAGACCAACATTGCTACGACCCGTATTCGCACCGACAC | -0.17 ± 0.32 | -0.0104 ± 0.27
ACATTTGTTGATACAACCATAAAATGATAATTACAACCATAAAATGATAATTATCACAACCATATATTGATATCTCCTCTGATCATAGTCAGACCAACATTGCTACGACCCGTATTCGCACCGACAC | 0.049 ± 0.22 | -0.16 ± 0.32
ACATTTGTTGATACAACCATAAAATGATAATTACAACCATAAAATGATAATTATCACACCCATAAATTGATAATTACTCTGATCATAGTCAGACCAACATTGCTACGACCCGTATTCGCACCGACAC | -0.0822 ± 0.2 | 0.0421 ± 0.03
ACATTTGTTGATACAACCATAAAATGATAATTACAACCATAAAATGATAATTATCACACCCATAAATTGATATTGCCTCTGATCATAGTCAGACCAACATTGCTACGACCCGTATTCGCACCGACAC | -0.38 ± 0.42 | -0.0716 ± 0.12
ACATTTGTTGATACAACCATAAAATGATAATTACAACCATAAAATGATAATTATCAGTGGGTATTTAACTATAACGCTCTGATCATAGTCAGACCAACATTGCTACGACCCGTATTCGCACCGACAC | 2.54 ± 0.061 | -0.267 ± 0.21
ACATTTGTTGATACAACCATAAAATGATAATTACAACCATAAAATGATAATTATCATAATTATCATTTTATGGTTGCTCTGATCATAGTCAGACCAACATTGCTACGACCCGTATTCGCACCGACAC | 1.96 ± 0.16 | 0.241 ± 0.067
ACATTTGTTGATACAACCATAAAATGATAATTACAACCATAAAATGATAATTATGATAATTATCATTTTATGGTTGCTCTGATCATAGTCAGACCAACATTGCTACGACCCGTATTCGCACCGACAC | 1.99 ± 0.068 | 0.301 ± 0.039
ACATTTGTTGATACAACCATAAAATGATAATTACAACCATAAAGTGATATTTATCACAACCATAAAATGATAATTACTCTGATCATAGTCAGACCAACATTGCTACGACCCGTATTCGCACCGACAC | -0.0691 ± 0.38 | -0.258 ± 0.14
ACATTTGTTGATACAACCATAAAATGATAATTACAACCATAAAGTGATATTTATCACAACCATAAAGTGATATTTACTCTGATCATAGTCAGACCAACATTGCTACGACCCGTATTCGCACCGACAC | -0.228 ± 0.22 | 0.0131 ± 0.077
ACATTTGTTGATACAACCATAAAATGATAATTACAACCATAAAGTGATATTTATCACAACCATAAGTTGATATTTTCTCTGATCATAGTCAGACCAACATTGCTACGACCCGTATTCGCACCGACAC | -0.251 ± 0.14 | -0.0894 ± 0.09
ACATTTGTTGATACAACCATAAAATGATAATTACAACCATAAAGTGATATTTATCACAACCATATATTGATATCTCCTCTGATCATAGTCAGACCAACATTGCTACGACCCGTATTCGCACCGACAC | -0.276 ± 0.022 | -0.331 ± 0.17
ACATTTGTTGATACAACCATAAAATGATAATTACAACCATAAAGTGATATTTATCACACCCATAAATTGATAATTACTCTGATCATAGTCAGACCAACATTGCTACGACCCGTATTCGCACCGACAC | -0.0135 ± 0.3 | 0.00575 ± 0.15
ACATTTGTTGATACAACCATAAAATGATAATTACAACCATAAAGTGATATTTATCACACCCATAAATTGATATTGCCTCTGATCATAGTCAGACCAACATTGCTACGACCCGTATTCGCACCGACAC | -0.0327 ± 0.15 | -0.128 ± 0.23
ACATTTGTTGATACAACCATAAAATGATAATTACAACCATAAAGTGATATTTATCAGTGGGTATTTAACTATAACGCTCTGATCATAGTCAGACCAACATTGCTACGACCCGTATTCGCACCGACAC | 2.5 ± 0.1 | -0.586 ± 0.2
